Data taken from US5877293, “CDR grafted anti-CEA antibodies and their production” (Celltech Therapeutics Limited, dated 1999).
One block for each binder: values may come before it.

What was measured:
[1] = target: T1, Carcinoembryonic Antigen (CEA) (Homo sapiens (Human), UniProt P06731); assay: competition RIA against 125I-labelled murine or chimeric A5B7 IgG1 on CEA coated beads
Experimental: (§1) The competition RIA for anti-CEA activity involved competition of a series of ^125I-labelled murine or chimeric A5B7 IgG1 with humanised IgG or fragments thereof from culture supernatant samples for binding to CEA coated beads. Binding activity was determined by measuring bead associated radioactivity. The assay was calibrated by competition with standard preparations of chimeric or murine A5B7 IgG1 and plotting % bound cpm versus antibody concentration. Interpolated apparent A5B7 concentration of unknowns was normalised by dividing by the assembly assay result to give a specific activity. Finally specific activity was expressed as % relative potency by comparison to that obtained from a positive control chimeric A5B7 culture supernatant produced during the same experiment.
The relative potency of purified murine and chimeric A5B7 Fab' and F(ab')_2 fragments and murine IgG was investigated using the competition RIA. In addition, the direct binding ELISA was run in competition mode, by coincubation of the test specimen with murine A5B7 IgG1, for confirmation of relative potency.
The relative potencies of murine and chimeric IgGs and fragments were measured by the competition RIA.

[2] = target: T1, Carcinoembryonic Antigen (CEA); assay: direct CEA binding ELISA, crude transient CHO supernatant (pAL46 + pBG11)
[3] = target: T1, Carcinoembryonic Antigen (CEA); assay: direct CEA binding ELISA, crude transient CHO supernatant
[4] = target: T1, Carcinoembryonic Antigen (CEA); assay: competition RIA on CEA coated beads, crude CHO supernatant
Experimental: as §1
In order to assess the CEA binding activity of the grafted chains co-expression, experiments in a transient CHO cell system were first performed with chimeric partners. Thus pAL43 and pAL44 were co-transfected into the CHO L761 h cell line (27) together with the chimeric A5B7 heavy chain expression plasmid pBG7, while pAL45 and pAL46 were co-transfected with the light chain expression plasmid pBG11. Co-transfections of pBG7 and pHMC19 were also performed to provide a chimeric/chimeric standard against which to compare activity of the chimeric/grafted hybrids. […] Competition RIAs were also performed on the crude CHO cell supernatants for gL1/gH2 and gL2/gH2.

[5] = target: T1, Carcinoembryonic Antigen (CEA); assay: direct CEA binding ELISA, crude transient CHO supernatant (pAL45 + pBG11)
[6] = target: T1, Carcinoembryonic Antigen (CEA); assay: direct CEA binding ELISA, crude transient CHO supernatant (pAL43 + pBG7)
[7] = target: T1, Carcinoembryonic Antigen (CEA); assay: direct CEA binding ELISA, crude transient CHO supernatant (pAL44 + pBG7)

B1: murine A5B7 F(ab')2 (other)
VH: EVKLVESGGGLVQPGGSLRLSCATSGFTFTDYYMNWVRQPPGKALEWLGFIGNKANGYTTEYSASVKGRFTISRDKSQSILYLQMNTLRAEDSATYYCTRDRGLRFYFDYWGQGTTLTVSS
VL: QTVLSQSPAILSASPGEKVTMTCRASSSVTYIHWYQQKPGSSPKSWIYATSNLASGVPARFSGSGSGTSYSLTISRVEAEDAATYYCQHWSSKPPTFGGGTKLEIKR
% Relative Potency [1]: 97%

B2: chimeric A5B7 light chain / grafted heavy chain gH2 hybrid (antibody, V domains shown)
VH: EVQLLESGGGLVQPGGSLRLSCATSGFTFTDYYMNWVRQAPGKGLEWLGFIGNKANGYTTEYSASVKGRFTISRDKSKSTLYLQMNTLQAEDSAIYYCTRDRGLRFYFDYWGQGTLVTVSS
VL: QTVLSQSPAILSASPGEKVTMTCRASSSVTYIHWYQQKPGSSPKSWIYATSNLASGVPARFSGSGSGTSYSLTISRVEAEDAATYYCQHWSSKPPTFGGGTKLEIKR
binding result [2]: binds

B3: Grafted A5B7 gL2/gH2 (antibody, V domains shown)
VH: EVQLLESGGGLVQPGGSLRLSCATSGFTFTDYYMNWVRQAPGKGLEWLGFIGNKANGYTTEYSASVKGRFTISRDKSKSTLYLQMNTLQAEDSAIYYCTRDRGLRFYFDYWGQGTLVTVSS
VL: QTVLTQSPSSLSVSVGDRVTMTCRASSSVTYIHWYQQKPGLAPKSWIYATSNLASGVPSRFSGSGSGTDYTLTISSLQPEDIATYYCQHWSSKPPTFGQGTKVEVKR
binding relative to the double chimeric antibody [3]: ~60% | Specific activity [4]: 0.55 | relative potency [4]: 47%

B7: Grafted A5B7 gL1/gH2 (antibody, V domains shown)
VH: EVQLLESGGGLVQPGGSLRLSCATSGFTFTDYYMNWVRQAPGKGLEWLGFIGNKANGYTTEYSASVKGRFTISRDKSKSTLYLQMNTLQAEDSAIYYCTRDRGLRFYFDYWGQGTLVTVSS
VL: QTVLTQSPSSLSVSVGDRVTITCRASSSVTYIHWYQQKPGLAPKSLIYATSNLASGVPSRFSGSGSGTDYTFTISSLQPEDIATYYCQHWSSKPPTFGQGTKVEVKR
binding relative to the double chimeric antibody [3]: ~60% | Specific activity [4]: 0.49 | relative potency [4]: 42%

B9: grafted light chain gL2 / chimeric A5B7 heavy chain hybrid (antibody, V domains shown)
VH: EVKLVESGGGLVQPGGSLRLSCATSGFTFTDYYMNWVRQPPGKALEWLGFIGNKANGYTTEYSASVKGRFTISRDKSQSILYLQMNTLRAEDSATYYCTRDRGLRFYFDYWGQGTTLTVSS
VL: QTVLTQSPSSLSVSVGDRVTMTCRASSSVTYIHWYQQKPGLAPKSWIYATSNLASGVPSRFSGSGSGTDYTLTISSLQPEDIATYYCQHWSSKPPTFGQGTKVEVKR
binding result [7]: binds

B10: chimeric A5B7 IgG1 (antibody, V domains shown)
VH: EVKLVESGGGLVQPGGSLRLSCATSGFTFTDYYMNWVRQPPGKALEWLGFIGNKANGYTTEYSASVKGRFTISRDKSQSILYLQMNTLRAEDSATYYCTRDRGLRFYFDYWGQGTTLTVSS
VL: QTVLSQSPAILSASPGEKVTMTCRASSSVTYIHWYQQKPGSSPKSWIYATSNLASGVPARFSGSGSGTSYSLTISRVEAEDAATYYCQHWSSKPPTFGGGTKLEIKR
% Relative Potency [1]: 100% | Specific activity [4]: 1.17 | relative potency [4]: 100%

Further lines, results first:

binding result [5]: binds
B4: chimeric A5B7 light chain / grafted heavy chain gH1 hybrid (antibody, V domains shown)
VH: EVQLLESGGGLVQPGGSLRLSCATSGFTFTDYYMNWVRQAPGKGLEWLGFIGNKANGYTTEYSASVKGRFTISRDKSKSTLYLQMNGLQAEVSAIYYCTRDRGLRFYFDYWGQGTLVTVSS
VL: QTVLSQSPAILSASPGEKVTMTCRASSSVTYIHWYQQKPGSSPKSWIYATSNLASGVPARFSGSGSGTSYSLTISRVEAEDAATYYCQHWSSKPPTFGGGTKLEIKR

% Relative Potency [1]: 93%
B5: mouse monoclonal antibody A5B7 (murine A5B7 IgG1) (antibody, V domains shown)
VH: EVKLVESGGGLVQPGGSLRLSCATSGFTFTDYYMNWVRQPPGKALEWLGFIGNKANGYTTEYSASVKGRFTISRDKSQSILYLQMNTLRAEDSATYYCTRDRGLRFYFDYWGQGTTLTVSS
VL: QTVLSQSPAILSASPGEKVTMTCRASSSVTYIHWYQQKPGSSPKSWIYATSNLASGVPARFSGSGSGTSYSLTISRVEAEDAATYYCQHWSSKPPTFGGGTKLEIKR

% Relative Potency [1]: 8%
B6: murine A5B7 Fab' (Fab, V domains shown)
VH: EVKLVESGGGLVQPGGSLRLSCATSGFTFTDYYMNWVRQPPGKALEWLGFIGNKANGYTTEYSASVKGRFTISRDKSQSILYLQMNTLRAEDSATYYCTRDRGLRFYFDYWGQGTTLTVSS
VL: QTVLSQSPAILSASPGEKVTMTCRASSSVTYIHWYQQKPGSSPKSWIYATSNLASGVPARFSGSGSGTSYSLTISRVEAEDAATYYCQHWSSKPPTFGGGTKLEIKR
modifications: rendered monovalent by alkylation

binding result [6]: binds
B8: grafted light chain gL1 / chimeric A5B7 heavy chain hybrid (antibody, V domains shown)
VH: EVKLVESGGGLVQPGGSLRLSCATSGFTFTDYYMNWVRQPPGKALEWLGFIGNKANGYTTEYSASVKGRFTISRDKSQSILYLQMNTLRAEDSATYYCTRDRGLRFYFDYWGQGTTLTVSS
VL: QTVLTQSPSSLSVSVGDRVTITCRASSSVTYIHWYQQKPGLAPKSLIYATSNLASGVPSRFSGSGSGTDYTFTISSLQPEDIATYYCQHWSSKPPTFGQGTKVEVKR

% Relative Potency [1]: 20%
B11: chimeric A5B7 IgG4 Fab' delta cys (Fab, V domains shown)
VH: EVKLVESGGGLVQPGGSLRLSCATSGFTFTDYYMNWVRQPPGKALEWLGFIGNKANGYTTEYSASVKGRFTISRDKSQSILYLQMNTLRAEDSATYYCTRDRGLRFYFDYWGQGTTLTVSS
VL: QTVLSQSPAILSASPGEKVTMTCRASSSVTYIHWYQQKPGSSPKSWIYATSNLASGVPARFSGSGSGTSYSLTISRVEAEDAATYYCQHWSSKPPTFGGGTKLEIKR
